B1: MN20A10-MMAF (conjugate)
VH: QVQLVESGGGLVKPGGSLRLSCAASGFTFSTYAMSWIRQAPGKGLEWVASIGRAGSTYYSDSVKGRFTISRDNAKNSLYLQMNSLRAEDTAVYYCARGPIYNDYDEFAYWGQGTLVTVSS
VL: EIVLTQSPATLSLSPGERATLSCKSSQSVLYSSNQKNYLAWYQQKPGQAPRLLIYWASTRESGIPARFSGSGSGTDFTLTISSLEPEDFAVYYCHQYLSSLTFGGGTKVEIKR
B2: MNC2-MMAF (conjugate)
VH: EVQLVESGGGLVKPGGSLRLSCAASGFTFSGYAMSWVRQAPGKGLEWVSTISSGGTYIYYPDSVKGRFTISRDNAKNSLYLQMNSLRAEDTAVYYCARLGGDNYYEYFDVWGKGTTVTVSS
VL: DIVLTQSPASLAVSPGQRATITCRASKSVSTSGYSYMHWYQQKPGQPPKLLIYLASNLESGVPARFSGSGSGTDFTLTINPVEANDTANYYCQHSRELPFTFGGGTKVEIKRT

System: high antigen (MUC1*) expressing cancer cells
Test: PrestoBlue plate reader killing assays over multiple cancer sub-types (FIGS. 38A-45D)
Assay type: cell-based
Conditions: breast (T47D-MUC1*) and pancreatic (HPAF II-MUC1*) cancer cells
Method: Therefore, although seldom done, it is critically important to test anti-cancer therapeutics against both the low antigen expressing early cancer cells and the later cancer cells that express high levels of the targeted antigen. In FIGS. 38A-45D, the ability of MNC2-ADCs and MN20A10-ADCs to kill multiple cancer sub-types was tested, where the tumors were either low-medium antigen expressing cancer cells or high antigen expressing cancer cells. […] The low expressing cancer cells were killed by treatment with either MNC2-ADC or MN20A10-ADC in the high nanomolar range of ADC, which is considered druggable. The cancer cells that expressed high levels of MUC1* were killed with IC50s in the single digit nanomolar range. […]
Another method of measuring the killing activity of mAb MNC2-ADCs and mAb MN20A10-ADCs against target cancer cells including T47D breast cancer cells NCI-H1975 non-small cell lung cancer cells and HPAFII pancreatic cancer cells is to use the PrestoBlue live/dead cell assay (ThermoFisher). […] After 72 hour-120 hour incubation in a 37° C./5% CO2 incubator, cell viability was measure by fluorescence using the PrestoBlue HS assay (ThermoFisher). […] Fluorescence (Ex 560 nm/Em 590 nm) was recorded after 30-90 min. incubation using a Tecan plate reader. Percentage viability was determined by PrestoBlue HS staining and normalized to 1 μM taxol treated cells. […]

| Molecule | concentrations at which cells engineered to express more MUC1* were killed |
| --- | --- |
| B1 | very low nanomolar concentrations |
| B2 | very low nanomolar concentrations |

Source: patent US12491259B2, “Anti-variable MUC1* antibodies and uses thereof” (Minerva Biotechnologies Corporation, priority 2022, dated 2025)
